Experimental data reported in article PMC11937480 (Communications Biology, 2025).

Molecular target: T1, HA-ZNF449 (UniProt Q6P9G9 1-518)
T1 sequence (looked up): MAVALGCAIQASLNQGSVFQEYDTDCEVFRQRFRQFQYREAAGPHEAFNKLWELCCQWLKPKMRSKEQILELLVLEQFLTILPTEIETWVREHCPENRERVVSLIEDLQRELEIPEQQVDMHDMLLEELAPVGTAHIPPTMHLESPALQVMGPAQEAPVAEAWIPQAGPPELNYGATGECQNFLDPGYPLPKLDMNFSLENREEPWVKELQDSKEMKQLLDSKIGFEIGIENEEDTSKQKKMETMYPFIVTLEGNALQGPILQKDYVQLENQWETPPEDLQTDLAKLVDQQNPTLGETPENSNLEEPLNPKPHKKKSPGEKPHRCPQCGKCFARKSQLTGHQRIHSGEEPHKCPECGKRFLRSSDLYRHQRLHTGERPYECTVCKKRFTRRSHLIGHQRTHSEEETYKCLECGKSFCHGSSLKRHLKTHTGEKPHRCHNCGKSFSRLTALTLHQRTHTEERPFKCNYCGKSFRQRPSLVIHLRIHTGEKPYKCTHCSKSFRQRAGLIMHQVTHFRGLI
Test: pull-down

binding result: binds
B1: GST-fused PTOV1 (125–283 aa) truncation (domain or fragment, UniProt Q86YD1 125-283, looked up)
chain: VNQGENLETDQWPQKLIMQLIPQQLLTTLGPLFRNSQLAQFHFTNRDCDSLKGLCRIMGNGFAGCMLFPHISPCEVRVLMLLYSSKKKIFMGLIPYDQSGFVSAIRQVITTRKQAVGPGGVNSGPVQIVNNKFLAWSGVMEWQEPRPEPNSRSKRWLPS
